Substitutions are numbered along the chain they refer to. In names and notes the source's numbering stands. Several values for one entry are separate records, joined by “and”; a condition that tells them apart may be missing. Equal values may be shown once.
How the values were obtained:
[1] = molecular target: ERFE CLR* (center PGP of the collagen-like repeat mutated to SSS) (human) (UniProt Q4G0M1); assay: AUC
[2] = molecular target: bone morphogenetic protein 6 (BMP6) (UniProt P22004)
[3] = molecular target: ERFE CLR* (center PGP of the collagen-like repeat mutated to SSS) (human) (UniProt Q4G0M1); assay: non-reducing SDS-PAGE
ERFE CLR*ΔC1Q (human) [4] = molecular target: ERFE CLR*ΔC1Q (human) (UniProt Q4G0M1); assay: AUC
ERFE CLR*ΔC1Q (human) [5] = molecular target: ERFE CLR*ΔC1Q (human) (UniProt Q4G0M1); assay: non-reducing SDS-PAGE
[6] = molecular target: bone morphogenetic protein 6 (BMP6) (UniProt P22004); remark: listed apart in the source
AUC [7] = molecular target: the molecule itself; assay: AUC
[8] = molecular target: T1, bone morphogenetic protein 6 (BMP6) (UniProt P22004 375-513); assay: cell-based or functional assay
T1 sequence: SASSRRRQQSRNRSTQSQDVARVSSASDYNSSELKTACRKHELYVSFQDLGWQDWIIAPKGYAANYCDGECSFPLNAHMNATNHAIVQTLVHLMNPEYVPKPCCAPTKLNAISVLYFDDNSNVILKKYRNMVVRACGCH

[9] = molecular target: T2, growth differentiation factor 5 (GDF5) (UniProt P43026 382-501); assay: cell-based or functional assay
T2 sequence: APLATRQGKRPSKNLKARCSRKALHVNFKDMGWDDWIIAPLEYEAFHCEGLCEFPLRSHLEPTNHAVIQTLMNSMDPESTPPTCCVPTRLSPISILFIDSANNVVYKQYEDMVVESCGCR

[10] = molecular target: T3, bone morphogenetic protein 7 (BMP7) (UniProt P18075 293-431); assay: cell-based or functional assay
T3 sequence: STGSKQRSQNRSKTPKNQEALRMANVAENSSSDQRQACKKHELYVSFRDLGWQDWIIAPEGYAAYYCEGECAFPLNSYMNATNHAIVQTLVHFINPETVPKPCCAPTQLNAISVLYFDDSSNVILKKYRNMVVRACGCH

[11] = molecular target: bone morphogenetic protein 2 (BMP2) (UniProt P12643 283-396); assay: cell-based or functional assay
bone morphogenetic protein 2 (BMP2), sequence (P12643 283-396): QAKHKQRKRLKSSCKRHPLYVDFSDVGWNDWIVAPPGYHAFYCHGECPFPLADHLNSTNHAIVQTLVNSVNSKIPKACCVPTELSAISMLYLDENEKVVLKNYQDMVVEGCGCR

[12] = molecular target: T1, bone morphogenetic protein 6 (BMP6); assay: cell-based or functional assay; remark: listed apart in the source
AUC [13] = molecular target: the molecule itself; assay: AUC; remark: listed apart in the source
non-reducing SDS-PAGE = molecular target: the molecule itself; assay: non-reducing SDS-PAGE

## ERFE CLR* (center PGP of the collagen-like repeat mutated to SSS) (from UniProt Q4G0M1 44-354) (natural protein)
[1]
  stoichiometry N: 3
[2]
  IC50 of inhibition of 2.5nM BMP6, luciferase reporter in BRITER cells: 6.1 nM
[3]
  stoichiometry N: 2

## ERFE CLR*ΔC1Q (from UniProt Q4G0M1 44-207) (domain or fragment)
ERFE CLR*ΔC1Q (human) [4]
  percent of the protein as dimer: 38%
  percent of the protein as monomer: 61%
  stoichiometry N: 2
[2]
  IC50 of inhibition of 2.5nM BMP6, luciferase reporter in BRITER cells: 27 nM
ERFE CLR*ΔC1Q (human) [5]
  stoichiometry N: 2

B1: ERFE D90A (natural protein)
chain: PPPGNELPRGPGESRAGPAARPPEPTAERAHSVDPRDAWMLFVRQSAKGVNGKKRSRGKAKKLKFGLPGPPGPPGPQGPPGPIIPPEALLKEFQLLLKGAVRQRERAEPEPCTCGPAGPVAASLAPVSATAGEDDDDVVGDVLALLAAPLAPGPRAPRVEAAFLCRLRRDALVERRALHELGVYYLPDAEGAFRRGPGLNLTSGQYRAPVAGFYALAATLHVALGEPPRRGPPRPRDHLRLLICIQSRCQRNASLEAIMGLESSSELFTISVNGVLYLQMGQWTSVFLDNASGCSLTVRSGSHFSAVLLGV
[6]
  IC50 of inhibition of BMP6, luciferase reporter in BRITER cells: 13 nM

B2: erythroferrone (ERFE), wild type, N-terminally flag-tagged hERFE residues 44-354 (natural protein)
chain: B1 chain with A47D
AUC [7]
  stoichiometry N: 3 and 6
[8]
  IC50 of ERFE inhibition of 2.5nM BMP6, BRE-luciferase reporter in BRITER cells: 5.2 nM
[9]
  IC50 of ERFE inhibition of 2.5nM GDF5, BRE-luciferase reporter in BRITER cells: 130 nM
[10]
  IC50 of ERFE inhibition of 2.5nM BMP7, BRE-luciferase reporter in BRITER cells: 8.9 nM
[11]
  IC50 of ERFE inhibition of 2.5nM BMP2, BRE-luciferase reporter in BRITER cells: 170 nM

B3: ERFE N94A (natural protein)
chain: B1 chain with A47D, N51A
[6]
  IC50 of inhibition of BMP6, luciferase reporter in BRITER cells: 21 nM

B4: ERFE Cys* (Cys155, 157 and 208 mutated to serines) (natural protein)
chain: B1 chain with A47D, C112S, C114S, C165S
AUC [7]
  stoichiometry N: 3
[12]
  IC50 of inhibition of 2.5nM BMP6, luciferase reporter in BRITER cells: 8.7 nM

B5: ERFE ΔC1Q (stop codon at C208, entire C1Q domain removed) (domain or fragment)
chain: PPPGNELPRGPGESRAGPAARPPEPTAERAHSVDPRDAWMLFVRQSDKGVNGKKRSRGKAKKLKFGLPGPPGPPGPQGPPGPIIPPEALLKEFQLLLKGAVRQRERAEPEPCTCGPAGPVAASLAPVSATAGEDDDDVVGDVLALLAAPLAPGPRAPRVEAAFL
AUC [13]
  stoichiometry N: 3
non-reducing SDS-PAGE
  stoichiometry N: 2
[12]
  IC50 of inhibition of 2.5nM BMP6, luciferase reporter in BRITER cells: 7.8 nM

B6: ERFE Cys*ΔC1Q (domain or fragment)
chain: B5 chain with C112S, C114S
AUC [13]
  stoichiometry N: 3
[12]
  IC50 of inhibition of 2.5nM BMP6, luciferase reporter in BRITER cells: 97 nM
